According to the supplement of paper PMC10724198:
± gives the standard deviation of the averaged measurements.
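Also: PSI is a weighted mean of sequencing reads over stability bins, variants kept only with over 10 reads, mCherry proximal and sfGFP distal, peptide attached via GGGS linker.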

Each sequence was assayed on Saccharomyces cerevisiae (assay: protein stability index of tFT-peptide fusion (C-terminal peptide) (PSI (0-1 scale)); higher = more stable (slower turnover)). Conditions: genetic background: wild type; temperature: 30 C.
Method: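 Multiplexed protein stability (MPS) profiling in S. cerevisiae. Random 12-aa peptides (tFT-X12 library) are fused to the C-terminus of a sfGFP-mCherry tandem fluorescent timer, after mCherry and a GGGS linker. Cells are FACS-sorted into 8 mCherry/sfGFP bins and deep-sequenced. The protein stability index (PSI) is the read-weighted bin average, scaled from 0 (unstable) to 1 (stable). Only peptides with >10 reads are reported; cells were grown at 30 °C in SC-His with glucose.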
AAEKSPQQADAD was tested, and the protein stability index was 0.709 ± 0.013. For AAGDLGNKCGWG, the protein stability index was 0.68 ± 0.025. Work on AAGRSNTEPGDH yielded a protein stability index of 0.69 ± 0.057. AAHLLPSIHGYL gave a protein stability index of 0.669 ± 0.076. AAKGSVRLFHVF was tested, and the protein stability index was 0.561 ± 0.017. AAMQCSRASTSS was tested, and the protein stability index was 0.634 ± 0.077. AAPDLARPPLLR showed a protein stability index of 0.685 ± 0.018. For AAPEGLRRDRGA, the protein stability index was 0.571. For AAPGWDGTIGCG, the protein stability index was 0.753 ± 0.043. AAPHDVARPTTR showed a protein stability index of 0.689 ± 0.015. AAPSPRPTPLPS was tested, and the protein stability index was 0.698 ± 0.025. With AAPSTSPGPRPA the protein stability index was 0.652 ± 0.01. In the case of AARRRLFSPCSP, the protein stability index is reported as 0.626 ± 0.1. ACGTFSDSMSQL showed a protein stability index of 0.691 ± 0.11. For ACIWRCFDAAMG, the protein stability index was 0.632 ± 0.019. ACKVIMSVGRRL showed a protein stability index of 0.644 ± 0.064. With ACSPPPPPTLLF the protein stability index was 0.686 ± 0.012. ADDDTGYPPTRT was tested, and the protein stability index was 0.669 ± 0.061. With ADPWSFKIVKEL the protein stability index was 0.542 ± 0.028. For ADSWACSWLLFR, the protein stability index was 0.613 ± 0.065. In the case of ADVVVGWWVSGW, the protein stability index is reported as 0.791 ± 0.1. AEERTSETRYKN gave a protein stability index of 0.656 ± 0.0079. AEIINRVKSRSK was tested, and the protein stability index was 0.731 ± 0.074. For AEKTKAEKNITK, the protein stability index was 0.752 ± 0.022. AELAMGVSDMYS was tested, and the protein stability index was 0.6782 ± 0.0013. With AEQLALSQLSYV the protein stability index was 0.687 ± 0.0099. AERKDKNRKKKR gave a protein stability index of 0.705 ± 0.023. AESSLSLFPPPP was tested, and the protein stability index was 0.756 ± 0.059. For AETALGVCGVLC, the protein stability index was 0.785 ± 0.11. Sequence AETYASFHLTDP has a protein stability index of 0.712 ± 0.042. AFALFVGKVLRC gave a protein stability index of 0.566 ± 0.021. AFFRLSLPGARA gave a protein stability index of 0.654 ± 0.011. For AFPSCCFFLSLS, the protein stability index was 0.662 ± 0.073. AFPSSLVFFFYT gave a protein stability index of 0.651 ± 0.033. In the case of AFRGGGVPGDFA, the protein stability index is reported as 0.624 ± 0.024. For AFSRCITVRVVH, the protein stability index was 0.498 ± 0.032. Sequence AFYVLPPSPLTR has a protein stability index of 0.665 ± 0.013. AGADCSHCVVDV was tested, and the protein stability index was 0.696 ± 0.0096. For AGAEHRERVGQS, the protein stability index was 0.896 ± 0.056. In the case of AGAGRLRGGGVN, the protein stability index is reported as 0.6767 ± 0.0017. In the case of AGAICWFRHILI, the protein stability index is reported as 0.67 ± 0.14. AGCGGGVTASGA was tested, and the protein stability index was 0.688 ± 0.055. In the case of AGCRCHSKKAAT, the protein stability index is reported as 0.624 ± 0.027. For AGCSVVGRWCLW, the protein stability index was 0.742 ± 0.1. With AGDGCGDWGRLS the protein stability index was 0.761 ± 0.11. In the case of AGEGRLGDNIKG, the protein stability index is reported as 0.6794 ± 0.004. Sequence AGFCFVALSLPL has a protein stability index of 0.629 ± 0.048. For AGGGAAGPAGWV, the protein stability index was 0.6728 ± 0.0036. With AGGGAVWQGQQD the protein stability index was 0.725 ± 0.024. Work on AGGGLGVVLGWW yielded a protein stability index of 0.7054 ± 0.0038. Work on AGHACGSLRGHP yielded a protein stability index of 0.682 ± 0.034. Sequence AGHLLDVRLLVL has a protein stability index of 0.487 ± 0.057. Sequence AGIFGGGRGGSV has a protein stability index of 0.697 ± 0.0048. For AGMIRKGQYRGG, the protein stability index was 0.68 ± 0.054. AGPDGDWREPRP was tested, and the protein stability index was 0.57 ± 0.069. AGQTLARLYTRS was tested, and the protein stability index was 0.614 ± 0.12. AGRFSPLPPHFI showed a protein stability index of 0.707 ± 0.035. Sequence AGSCVRLGGPEW has a protein stability index of 0.745 ± 0.052. Sequence AHDRLPSTRLVC has a protein stability index of 0.581 ± 0.086. In the case of AHLGRDVGRGTW, the protein stability index is reported as 0.729 ± 0.062. AHNRQRPEPDAR was tested, and the protein stability index was 0.636 ± 0.031. With AHRLTKVIILFG the protein stability index was 0.67 ± 0.1. For AHRSIFSASSLL, the protein stability index was 0.668 ± 0.084. AISPAPRVSPTP was tested, and the protein stability index was 0.786 ± 0.052. AISPHPPPALTP gave a protein stability index of 0.6872 ± 0.0027. Sequence AISPLLPSFSPP has a protein stability index of 0.665 ± 0.037. AKGVYFPIKGIY showed a protein stability index of 0.6436 ± 0.004. With AKREGGGYSEDN the protein stability index was 0.664 ± 0.086. AKWGGDGCGARM was tested, and the protein stability index was 0.764 ± 0.082. Work on ALAPCLPESIGN yielded a protein stability index of 0.676 ± 0.057. In the case of ALAPLISLSFLS, the protein stability index is reported as 0.68919 ± 0.00059. ALAQQSPLPTRP was tested, and the protein stability index was 0.703 ± 0.011. ALDACLYLSSGL gave a protein stability index of 0.637 ± 0.0097. ALFCLLLPPPSP was tested, and the protein stability index was 0.724 ± 0.008. ALFFCLFGRVMW gave a protein stability index of 0.488 ± 0.023. ALFLDFCFPCLP gave a protein stability index of 0.619 ± 0.011. Work on ALGQWGCAELHG yielded a protein stability index of 0.709 ± 0.0075. In the case of ALGRRGPEDWSG, the protein stability index is reported as 0.707 ± 0.031. For ALPARFSSFRLP, the protein stability index was 0.678 ± 0.019. In the case of ALPFPASTSPLS, the protein stability index is reported as 0.701 ± 0.048. ALPPSFPRPFSF gave a protein stability index of 0.703 ± 0.036. With ALPTLALPPCRS the protein stability index was 0.73 ± 0.1. Work on ALRLLLFISKSP yielded a protein stability index of 0.6119 ± 0.0013. For ALRRKPRPRYPP, the protein stability index was 0.621 ± 0.051. For ALRSGHALPFGF, the protein stability index was 0.667 ± 0.021. ALSFISYPFPLL was tested, and the protein stability index was 0.642 ± 0.1. AMGSDRPPQSGY showed a protein stability index of 0.695 ± 0.012. Sequence ANRTIFWGRVRN has a protein stability index of 0.721 ± 0.05. With ANYGSCSLGYVL the protein stability index was 0.74 ± 0.062. For APAAPLPVVSPD, the protein stability index was 0.752 ± 0.073. APAPHSPNFPFS showed a protein stability index of 0.699 ± 0.008. Work on APAPPPVSSASL yielded a protein stability index of 0.665 ± 0.013. Sequence APARASPPPPPP has a protein stability index of 0.633 ± 0.012. APHLPGHLTRPP gave a protein stability index of 0.686 ± 0.086. Work on APLFPLTPLAPP yielded a protein stability index of 0.733 ± 0.017. In the case of APLPASPPIPSS, the protein stability index is reported as 0.662 ± 0.12. With APLPRRQFPLSP the protein stability index was 0.687 ± 0.011. Sequence APLSPSAPPPPP has a protein stability index of 0.709 ± 0.031. APPLPHSSSGSL gave a protein stability index of 0.698 ± 0.028. In the case of APPPLCCPPLAP, the protein stability index is reported as 0.735 ± 0.1. In the case of APPPPLPPPPSP, the protein stability index is reported as 0.689 ± 0.092. APPPPPPPPPPP showed a protein stability index of 0.63 ± 0.056. Sequence APPPPPPPRLTF has a protein stability index of 0.695 ± 0.076. With APPPPVAEAARG the protein stability index was 0.667 ± 0.032. In the case of APPPREAATSIA, the protein stability index is reported as 0.699 ± 0.036. Work on APPRPCFSALTL yielded a protein stability index of 0.726 ± 0.076. In the case of APPRPTRSHSAL, the protein stability index is reported as 0.657 ± 0.043. In the case of APRFDLVLPHVF, the protein stability index is reported as 0.721 ± 0.07. Work on APRRPPQHPTLL yielded a protein stability index of 0.626 ± 0.038. With APRSPSLRSRHP the protein stability index was 0.743 ± 0.018. With APRTRLCVHEIP the protein stability index was 0.686 ± 0.01. In the case of APSPPRAPLPPA, the protein stability index is reported as 0.689 ± 0.047. AQELPGGAGGDG showed a protein stability index of 0.659 ± 0.031. In the case of AQSFRGVLLDVT, the protein stability index is reported as 0.706 ± 0.05. AQTTRGGRRGDE was tested, and the protein stability index was 0.657 ± 0.034. AQYSTPSPMGQT showed a protein stability index of 0.671 ± 0.044. Work on ARCLETKPVMNA yielded a protein stability index of 0.666 ± 0.03. Sequence ARFVAGLTKVDV has a protein stability index of 0.65 ± 0.029. ARGGTAVYKAAG showed a protein stability index of 0.668 ± 0.02. ARGRSACGKLIY was tested, and the protein stability index was 0.654 ± 0.017. ARKGVDFSRVIG gave a protein stability index of 0.6472 ± 0.0059. For ARLAVTLLISPS, the protein stability index was 0.604 ± 0.016. Work on ARLGSVFLDPSG yielded a protein stability index of 0.64833 ± 0.0003. ARLPPPRPLPPP showed a protein stability index of 0.748 ± 0.13. In the case of ARLPVPPLLCPF, the protein stability index is reported as 0.71 ± 0.061. Work on ARPFPPLSPPPP yielded a protein stability index of 0.655 ± 0.078. ARPPLARITRPS was tested, and the protein stability index was 0.686 ± 0.015. In the case of ARPPLSHPRPPL, the protein stability index is reported as 0.788 ± 0.057. ARPPSLLLLASF showed a protein stability index of 0.6475 ± 0.0058. With ARPSPPAILVPS the protein stability index was 0.586 ± 0.017. ARRAWPPPTPLF was tested, and the protein stability index was 0.719 ± 0.058. ARRCRPVFRHAI showed a protein stability index of 0.639 ± 0.007. In the case of ARRGLVWTEGGG, the protein stability index is reported as 0.718 ± 0.011. ARSRLAPLSVLA gave a protein stability index of 0.548 ± 0.029. ARSTGATSEHKQ was tested, and the protein stability index was 0.667 ± 0.062. In the case of ARTSPRSPTFPP, the protein stability index is reported as 0.69 ± 0.066. With ASARLRPDCPYL the protein stability index was 0.645 ± 0.074. Sequence ASAWLGLCGWVL has a protein stability index of 0.674 ± 0.018. With ASENESDDEKLF the protein stability index was 0.7 ± 0.071. ASLAPTLPPPPQ showed a protein stability index of 0.677 ± 0.021. In the case of ASLEASFYVVPC, the protein stability index is reported as 0.641 ± 0.014. Sequence ASNSSGHTTRAS has a protein stability index of 0.6727 ± 0.003. Work on ASPFTYPDFFFP yielded a protein stability index of 0.661 ± 0.046. ASPLPPPSHLSL gave a protein stability index of 0.741 ± 0.021. In the case of ASRISTAFPVPP, the protein stability index is reported as 0.685 ± 0.057. ASSHSFPDAPSL showed a protein stability index of 0.73 ± 0.046.
